The experiment concerns the target T1, Fc fused human IL-18BP isoform a (IL-18BPa) (human), O95998.
T1 chain: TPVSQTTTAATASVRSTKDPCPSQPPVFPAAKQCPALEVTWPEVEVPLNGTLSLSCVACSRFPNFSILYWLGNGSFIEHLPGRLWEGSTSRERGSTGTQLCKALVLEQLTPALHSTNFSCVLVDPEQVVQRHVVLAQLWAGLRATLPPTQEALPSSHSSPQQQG
Nature of the experiment: SPR, Fc-IL-18BPa captured, 1:1 model. As to conditions: remark: other sources report otherwise.

Some results are limits rather than exact numbers.

B1: Modified IL-18 polypeptide of SEQ ID NO: 2 (E06K, K53A, S55A), Q14116 37-193 (ligand)
chain: YFGKLKSKLSVIRNLNDQVLFIDQGNRPLFEDMTDSDCRDNAPRTIFIISMYADAQPRGMAVTISVKCEKISTLSCENKIISFKEMNPPDNIKDTKSDIIFFQRSVPGHDNKMQFESSSYEGYFLACEKERDLFKLILKKEDELGDRSIMFTVQNED
B1 gave a Kd of 323 nM, an off-rate (koff) of 0.0154 s⁻¹ and a kon of 47800 M⁻¹ s⁻¹.

B2: Modified IL-18 polypeptide of SEQ ID NO: 17 (E06K, K53A, S55A, C38S, C68S, C76S, C127S, K70C), Q14116 37-193 (ligand)
chain: YFGKLKSKLSVIRNLNDQVLFIDQGNRPLFEDMTDSDSRDNAPRTIFIISMYADAQPRGMAVTISVKSECISTLSSENKIISFKEMNPPDNIKDTKSDIIFFQRSVPGHDNKMQFESSSYEGYFLASEKERDLFKLILKKEDELGDRSIMFTVQNED
B2: the Kd is 1000 nM.

B3: Modified IL-18 polypeptide of SEQ ID NO: 3 (Y01G, F02A, E06K, M51G, K53A, D54A, S55A, T63A), Q14116 37-193 (ligand)
chain: GAGKLKSKLSVIRNLNDQVLFIDQGNRPLFEDMTDSDCRDNAPRTIFIISGYAAAQPRGMAVAISVKCEKISTLSCENKIISFKEMNPPDNIKDTKSDIIFFQRSVPGHDNKMQFESSSYEGYFLACEKERDLFKLILKKEDELGDRSIMFTVQNED
As to B3, the equilibrium dissociation constant (Kd) is more than 1000 nM.

Values taken from US20220056091A1.
